Measured values from patent US9290743B2, “L-aspartate oxidase variant and a method for producing quinolinate or nicotinic acid using the same” (CJ CHEILJEDANG CORP., priority 2013, dated 2016).

System: L-aspartate oxidase
Assay: Activity test of L-aspartate oxidase variants (H2O2, Amplex Red, absorbance at 560 nm) with NAD added
Type: biochemical, E. coli
Description: After the recombinant vector pT7-nadB, pT7-nadB67, pT7-nadB67(V), pT7-nadB67(L), pT7-nadB67(I), or pT7-nadB67(H) was transformed into a tuner strain via CaCl2 method, the transformed strain was smeared on a LB-SP (yeast extract 10 g/L, NaCl 5 g/L, tryptone 10 g/L, and spectinomycin […]) plate medium, and cultured overnight at 37[…] to select spectinomycin-resistant colonies. One colony was selected from them and cultured in a LB-SP (yeast extract 10 g/L, NaCl 5 g/L, tryptone 10 g/L, spectinomycin […]) liquid medium, and then a isopropyl-1-thio-β-D-galactopyranoside (IPTG) derivative was added thereto when the growth optical density (OD) value reached to 0.4, and cultured at about 18[…] overnight. Cells including the overexpressed wild type L-aspartate oxidase and L-aspartate oxidase variants were recovered from the culture medium, followed by purification of the wild type L-aspartate oxidase and L-aspartate oxidase variants from the recovered cells by Ni-NTA spin kit (Quiagen, U.S.A). The recovered protein was 50% of a total protein, about 2% of the recovered protein was recovered as L-aspartate oxidase.
The L-aspartate oxidase converts aspartate as a substrate to iminoaspartate in the presence of an FAD as cofactor, and the imminoaspartate is converted b to oxaloacetate. Hydrogen peroxide (H2O2), that is generated through the above-described reaction, was used to identify the activity of the nadB. Absorbance at 560 nm of a reaction product of H2O2 with a product from the reaction was measured using an Amplex Red (Invitrogen, Korea) to determine the activity of the nadB. Here, NAD was added at different concentrations to create a condition for competitive inhibition to FAD so as to evaluate the resistance of L-aspartate oxidase against the feedback regulation by NAD.

B1: Wild type-nadB: His-tagged wild type E. coli L-aspartate oxidase (SEQ ID NO: 1) purified from pT7-nadB expression (protein)
chain: MNTLPEHSCDVLIIGSGAAGLSLALRLADQHQVIVLSKGPVTEGSTFYAQGGIAAVFDETDSIDSHVEDTLIAGAGICDRHAVEFVASNARSCVQWLIDQGVLFDTHIQPNGEESYHLTREGGHSHRRILHAADATGREVETTLVSKALNHPNIRVLERSNAVDLIVSDKIGLPGTRRVVGAWVWNRNKETVETCHAKAVVLATGGASKVYQYTTNPDISSGDGIAMAWRAGCRVANLEFNQFHPTALYHPQARNFLLTEALRGEGAYLKRPDGTRFMPDFDERGELAPRDIVARAIDHEMKRLGADCMFLDISHKPADFIRQHFPMIYEKLLGLGIDLTQEPVPIVPAAHYTCGGVMVDDHGRTDVEGLYAIGEVSYTGLHGANRMASNSLLECLVYGWSAAEDITRRMPYAHDISTLPPWDESRVENPDERVVIQHNWHELRLFMWDYVGIVRTTKRLERALRRITMLQQEIDEYYAHFRVSNNLLELRNLVQVAELIVRCAMMRKESRGLHFTLDYPELLTHSGPSILSPGNHYINR
modifications: His tag; amino acid sequence of nadB
Relative activity (NAD 0 mM): 100%
Relative activity (NAD 0.05 mM): 95%
Relative activity (NAD 0.3 mM): 82%
Relative activity (NAD 0.5 mM): 65%
Relative activity (NAD 1 mM): 22%
Relative activity (NAD 1 mM, listed as wild type L-aspartate oxidase): less than 50%
